# Test: soluble on expression in E. coli; label from the status in PepcDB or PDB records
row,Sequence,soluble on expression in E. coli
1,MNVLSPHIALYRLFDVADEIDLGRLSTPRLRLSRARLGAVRFENPPGEMELGVRNVEGLSGLLTARLYEFGVVSLSFRIHLGERVPWEAFLEKGLRIPELPFWEGFFLAELAALEPHLRGALLRPEEKRLSEEFVVYHALGLEGEKAFRPSVDLTPLWMGAEEEFAPEVRREVERYRYSYSTEDLALLGFDRVLILDSEGIWDVADLVEFVHAQLLELSYYDRVLTEELELVPQVLRHRGLWGYGRLQRLRRRLMARHAEIADVKARMEGALRITEDLFYAKIYRAALELYGAYELEKSVEEKLRVLEATYEMVTEEVAHLRTQAVEVAILALIAFEVVRALH,soluble
2,MTILFARNIEKGFGDRTLFTLPSLEIQAQDRIGIVGVNGAGKSTLLQILSKEIEADKGIVTHHSSISIIPQISEELPKVASSTAKGKWNISNISNSMSGGERMRLKIAHALEQDAGILFADEPTSHLDMFGTEQLEKALLSYKGALVLISHDREFLDNICTKIIEIEDGIIQEYKGNYSNYRKQKERERTQKQAEYEQYINEKERLEKSILQKKQRASSMTKIPTRFSSSESKLYKLSGANGQEQVSKAAKALETRLEKLEKKEKPKELSQAQFDVQYHTPIHSKVAVQFNKATKKIGDLTLFKNMNGTIAPGAKLAILGANGSGKTTLFNMLLANERGIQLSKSCKIGYFEQTLSILKTDKTILENVLEETNYTESFVRTILARLLFRREDVHKPVHVLSGGERMKVALAKVFLGNYNMLLLDEPTNYLDLATQEELESMLQEYPGTILFISHDRAFIRSVADHILQVDESEPRVFHGNYEQYTNRTADASVNVTAQELLRLQTKLTEIIGRISIPNHHDDITSLEQEYETLLVKIRKCKEAL,not soluble
3,MCSSPTTLFLLFALVSTSYALLGVGRTQSVAVSGRVICNGQPASGVKLKLYEKESTFDVLLEEATSDANGQFRLSGSKTEISTIDPKLNIYHKCNYNGLCYKKIGITIPDNYVSSGKTPSKTYDIGTLNLANQYTGQTTDCIN,not soluble
4,SLTAISKMTRGLDYYEVMGLTRSANDIDIRRAYRRLALKYHPDINKDGAAGDEFLRICEAYEVLCDPKTKGFYDLYGEDALKDGISDGNGGLKGPMYRFNPEESPKAVFERFFGTANPYEALEALSNQFESMTSEEAPARGKNKVYPLELTLEEIFHGCLKKVAHKRKVLLFSGEYVEEERQLTVDVKPGLPTGTRFVFEGEGNKTPKKEPGPVVFVLKPKPHPRFVRRGSDLVHKVTLPLHHALIGTTLDIRTLDDRDLKVPISDIMRPGSSLTVPGEGMPLPATPSARGNLVIEIDLLFPTHLTETQKMLLRSAFFLPPPTEQNEETKKALRDYEAAFKHDLKGWATVFKRL,not soluble
5,MDLTVEPNLHSLITSTTHKWIFVGGKGGVGKTTSSCSIAIQMALSQPNKQFLLISTDPAHNLSDAFGEKFGKDARKVTGMNNLSCMEIDPSAALKDMNDMAVSRANNNGSDGQGDDLGSLLQGGALADLTGSIPGIDEALSFMEVMKHIKRQEQGEGETFDTVIFDTAPTGHTLRFLQLPNTLSKLLEKFGEITNKLGPMLNSFMGAGNVDISGKLNELKANVETIRQQFTDPDLTTFVCVCISEFLSLYETERLIQELISYDMDVNSIIVNQLLFAENDQEHNCKRCQARWKMQKKYLDQIDELYEDFHVVKMPLCAGEIRGLNNLTKFSQFLNKEYNPITDGKVIYELEDKEGLVPRGSLEHHHHHH,soluble
6,GSHMEVNLRMSWWGGNGRHQVTLKALEEFHKQHPNINVKAEYTGWDGHLSRLTTQIAGGTEPDVMQTNWNWLPIFSKDGTGFYNLFSVKEQLDLAQFDPKELQQTTVNGKLNGIPISVTARIFYFNDATWAKAGLEYPKTWDELLAAGKVFKEKLGDQYYPVVLEHQDTLALIRSYMTQKYNIPTIDEANKKFAYSPEQWVEFFTMYKTMVDNHVMPSTKYYASFGKSNMYEMKPWINGEWAGTYMWNSTITKYSDNLTKPAKLVLGPYPMLPGAKDAGLFFKPAQMLSIGKSTKHPQESAMLINFLLNSKEGVEALGLERGVPLSATAVTQLRASGVIKDEDPSVAGLNMALELPHKMTTSPYFDDPQIVSLFGDAIQYIDYGQKTVQETAEYFNKQGDRILKRAMR,soluble
7,MSVVISGALTDGAGIPMSGYHIILKSRVNTPEVVMNTVADVMTGNDGEYCFHARTGKYGVYLKQDWRNEYNVGDIAVYEDSKPGTLNDFLIAPDEGDLKPDVVKRFEEMVAQAQQSAGAAAGNAQQTAQDVAAAAGYARAAEQAKNDIDAALTGTLKTANHLSETAAAGEKAQQKSRDNLGLKSAATMEAQSDIYDRTKGRLAIPGAFGFGCAFLPEDVIRFDTKSDFLAWVRNALPGEYSVAGPYGIIIPDTRFEGVLSIRWTDARPETTEPRYRAKSLTFYGINGPIYHTRYRYWPISRLTDWVKINITTEDIIYRIVASSVRNRWGDPDIGGLIIAAYQGEADGDKVIRLVRGQSYRGSRLGPVGISVPSTPTGTYIASPQFFITGCSEHSLPGSYCALSGVPDAHVSGAMPGLFIRTS,not soluble
8,MAHHHHHHMGRKKRKLNIDLKPFCYYCDREFDDEKILIQHQKAKHFKCLHCNRKLDMANGLVVHMMQVHKTNLKSVPNALPKRNDPELVIRGMNGVPTDIIEENLIKLKQKLGDKNIKRQQRVNWAQVTMAPTMEQFLKQAQMGNFSFPGFNSPVLPTNNNILTNTLDINNKSTLPNIPLYIPNTTSNINNINNINNLLQQPIGNNIIYPPKNSTLLNMPIPPINKNNINNHVVTNPNTFTPSNIPPNIAHKYSANINLLPTNINQHNPMYMPPGLYPPPIPPLNHPSIPPTHIPSSTYPTKMTPIQQKRPSTKWDVPEPSEGDPSILKHNKEDSTENKNEEPHKVSQDDDLKQNEQKDNQEKNHTQNCE,not soluble
9,MSTDITPSSAPQCPDHIVFEHVTKEFRTRSGTVRALDDVSLAIKRGSISAVIGHSGAGKSTLVRLINGLETPTRGRVLVDGTDVSQLSDKAMRPLRADIGMIFQQFNLFGSRTIYDNVAYPLKLAHWKKADEKKRITELLSFVGLTSKAWDHPDQLSGGQKQRVGIARALATKPSILLADESTSALDPETTADVLSLLKRVNAELGVTVVVITHEMEVVRSIAQQVSVLAAGHLVESGSARQVFAHPQSETTQRFLATIIGQHPNGEEQARLQSENPHARLVDVSSVASHSFGDALARISHTGASFQIVHGGVIEVHDGSLGNYTVALSGPAQAVEQAVQILEEVSNSAAPTTSATVPTPTEEAHLEHHHHHH,not soluble
10,TKDFSWTTAFNLSHNKNKILKLADLPWFVDGRYVRKEGYPFNTIYLREYAGVDPETGSALYYDNQQDENGNYTKNKVTDPGQASPIPLKDITPTISGGFMNTFNYKFIDLSFNLSYSFGGYSYDNASYILQDDGYSVISNKSTEQRRRWQKPGDITDVPRFVYGNKKGGNYNSSRAIHSTDHIRLKSLILGLNAPKAWLQKLGIGNARIYFSGTNLLTWAAYDQYDPEMSGVVGFYTPPLKTYAFGLELKF,not soluble
11,MGTLLIDVDGTVVDSYPGIREAFIHSMTSVGIPVPEESWLRRIPGPPMVETMRALGQSDSVTAAALACFRQQYDQISWRNSQLFDGWHDALSEWRSQGIRLFTATSKNEHLARLTLEYLGVADLFDFIGGADPTVGRETKADVIAYVLATTETSEHSPILMVGDRSHDTEGAAAFGIPTMLVTWGYGNEQEWSHADYHARNMAEAKGIVRDFFN,not soluble
12,MANAIRLPPEAYPMSIAAQKNDDDRQARALAALAEKPDGIVEAIAAKAEVAPAEILAILPQGAAVSAPADRFDAIWNEMRGWGEILMIVQTGDIVLEVPGHLPEGTESHGWFNIHGDSPIGGHIKKDNCAAITFVDRGFHGRRSCSVWFMNAAGGAMFKIFVRRDENKELLAGQLAKFEELRDGFRGLEHHHHHH,soluble
13,MGSDKIHHHHHHMDVWKVLGRYSNVLVLSKKNSILILEINGKAPKPGESVRVWNNRVMTGKELKAKLLAHFDEELSLKVLKVPGLLEFLHDISRGFDKKYVHFVKLFVKHLVPSRFLKMNNEEKKIIMKSFPEVFESGPSSVRIRFSVKSFFEYVQKNFPINRNINEEALRRTVTLKRPILSTEEYDVYQMNEPLSKGFAGKNYMALPLSGKYLIVVFRRRNFPFVEFKLKEEPDLTFFEDFVNDKVAVEKRENGWVLIWKDREMMEFELPDKELLPRPEKLVDDDLLDAVFLLNSLLEENVRFASMPSFGVQEMWWEKDNNRVILVVNTVRFGRVVADVILEGRSLSVRFYAEKNSEELSAHSEELQKEFERLGLIAHVFFLRKDPMNWEGFNAYG,not soluble
14,MVLGLASFPESLSSQSETATQPRRPSVKWDLGSDYRKGTEETTASGSNFRRERLDSQPDLGLHVQPQIYFLRPRSPLPKLLFSLMNTNDANVKKLLPKSHLSRVIIRDNLNAQRICEMEMKASDKTKRKMSYLYDHLKKKFMMDQLRKMIRWRRDSQSTQDYLDKERV,not soluble
15,MAHHHHHHMIDLTGKTSLITGASSGIGSAIARLLHKLGSKVIISGSNEEKLKSLGNALKDNYTIEVCNLANKEECSNLISKTSNLDILVCNAGITSDTLAIRMKDQDFDKVIDINLKANFILNREAIKKMIQKRYGRIINISSIVGIAGNPGQANYCASKAGLIGMTKSLSYEVATRGITVNAVAPGFIKSDMTDKLNEKQREAIVQKIPLGTYGIPEDVAYAVAFLASNNASYITGQTLHVNGGMLMV,soluble
16,IKDFNYGVKFVLSDDQRKVTRYPNEELNRNQWYAGRMDGLVWGYETVGIAKTDAEMEAHLASLPNGGQSQLGSKWAAGDIMYKDLNGDGKISSGDGTLNDLGDLKVVANTQLRFKYGLTLDASWKGFDFSAFFQGVGKRDVVVGGPYFWGANGQGMWQAAAFKDHMDYFRPEDTESVFGPNVDAYYPRVIFGGGSSEGGKNTLTQSRYVQNGAYIRLKNLQLGYTLPSTITKKFAVNSLRVYVSGDNLWTGTKMRVFDPEVLGSTGDAGKAYPLARVWSVGLNVNF,not soluble
17,NATLKGLKLSERSTTEIQLLAEQAITVSKQEVKEFTYKVESNKQFEATVKIKADLKIDPTKAMSHIENIFKDDETKKKDAQNSLTMSMGQNEALEATFTYSPATQGIFGRASFDRFTSNIKLNTKLRIQVSSTSDLMKKLLENSLTSSLKDQSFDNEGVNLFPYTLFAL,not soluble
18,MSILDTEVTLINGEKASMDQWAGHCLLIVNTASECGYTPQLETLEELYEDYAMRGFFVIGVPCNQFGEEEPGKDAQVARRYEEKFGVRFPLLAKSDVNGPNTIELYKKLKGDGPDIEWNFEKFIVAPSGEVVGRFAPSLDPDDMKIINVLEEYLPI,soluble
19,MGSDKIHHHHHHMKVHVLASGSTGNAVLFQFGESKILVDAGISCRRIENGLQAIGTRAGELDAVLLTHEHTDHIKGLDVFIRKYQLPVFARPATWSKIDCRKKFPGECIKELEGTFSLGKVLIEPFAISHDAIDPVGFCFYYGKRKAVIATDLGMVSREVEKALSFSDIAVLESNHDPQMLKNGPYPPYLKKRIEGREGHLSNFDTARLLSTVPRHNPMQVLLAHISQQNNHPMLAQQTVSKIMQDSGCEVGREIGIYPTFPHHGITCTMTRVFAVNAPLFQWADLLAKQDGRGKAN,not soluble
20,MENSSDPRTQSAATASLSEMIATITKTFIIAHVDDSDEHLAQALVYNAGRLAWRMREQGVHTDYKTSLSDVVTDADRAAEEFVSGVLTTLRPEDGIVGEEGATRNSTSGRTWVIDPVDGTYNFVNGSDFWCSALALIEGEPEDPTSVIFGAVHRPAMGYTWFGGPEIPTTCDGQPVAKLENKSTELINFATYLNPPCLQQPEIVTRWLTIAQAFLSWRMMGSGSVELANVADGTIGAYVQHSVKDWDWLPGRALVEGAGGKCIKVESGGVTWSIASNPQATDEVAAMLSR,not soluble

# Reference: the DeepSol protein solubility set
